Results: patent US20050249739A1

Molecular target: S protein of GD03T on pseudotyped HIV (SARS-CoV (GD03T isolate))
Experiment: cell-based or functional assay

80R IgG1 (antibody)
S-protein-pseudotyped HIV luciferase infection of ACE2-expressing 293T cells: > 50 µg/mL
